In PMC9970974 (2023):

B1: MafI2_(MGI-2B16B6) with a C-terminal 6xHis-tag (natural protein)
chain: MYKIKCFYDQFSSGELFNYCQFLDNSSNQKINTRGTVYQYIIYVLTGDLYLQKDIDENLEFIHQAENNPNEVYSGGGQGFCWDISAEKVVFYHNEFDEEDGWPDLSCSLHTFKTALIAWNAFLQLPKSIHSVVETVIEE

How the values were obtained:
[1] = target: short version of the toxin domain (Ile323-the C-terminus) of MafB2_(MGI-2B16B6), no tag (N. meningitidis B16B6) (UniProt Q9JXD2); assay: ITC; Nano ITC, 20 °C, 10 mM Tris-HCl pH 8.0, 100 mM NaCl, 2 mM β-ME; 50 injections of 1 μl NmMafI2 (~1.3 mM) into NmMafB2-CT2 (~0.2 mM); independent binding sites model
[2] = target: T1, short version of the toxin domain (Ile323-the C-terminus) of MafB2_(MGI-2B16B6), no tag (N. meningitidis B16B6, UniProt Q9JXD2 323-483); assay: ITC
T1 chain: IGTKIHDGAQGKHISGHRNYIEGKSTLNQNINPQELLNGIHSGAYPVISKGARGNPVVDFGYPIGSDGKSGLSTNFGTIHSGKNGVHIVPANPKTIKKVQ

Molecule	Kd [1] [nM]	stoichiometry N [1]	Kd [2] [nM]
MafI2_(MGI-2B16B6) with a C-terminal 6xHis-tag (from UniProt A0A0G4BSP3 1-139) (natural protein)	40	1	
B1			35.1
